One block for each sequence: values may come before it.
Tests used:
Assay in all cases: IEDB peptide-MHC binding, purified MHC/competitive/radioactivity; filed as Kd, often an IC50 or EC50 that approximates it; ≥ and ≤ were set here for values at or beyond the usual limits of such assays
HLA-A*02:06 = target: HLA-A*02:06
HLA-A*02:02 = target: HLA-A*02:02
HLA-A*02:03 = target: HLA-A*02:03
[1] = source organism: Vaccinia virus WR
[2] = source organism: Dengue virus 2 Jamaica/1409/1983
[3] = source organism: SARS coronavirus Tor2
[4] = source organism: Mammarenavirus juninense
[5] = source organism: Dengue virus 2 16681-PDK53
[6] = source organism: Mammarenavirus guanaritoense
[7] = source organism: Lassa virus Josiah

Sequence: AAIDRQVSV
Kd (HLA-A*02:06; [1]): 14.9 nM
Kd (HLA-A*02:02; [1]): 933 nM
Kd (HLA-A*02:03; [1]): 18.6 nM

Sequence: AIMAVGMVSI
Kd (HLA-A*02:03; [2]): 58 nM

Sequence: AMHDKKIDI
Kd (HLA-A*02:06; [1]): ≥ 42000 nM
Kd (HLA-A*02:02; [1]): 17200 nM
Kd (HLA-A*02:03; [1]): 1520 nM

Sequence: ATLNTLITLI
Kd (HLA-A*02:06; [1]): 198 nM
Kd (HLA-A*02:02; [1]): 31.5 nM
Kd (HLA-A*02:03; [1]): 27.9 nM

Sequence: CIVQSVLRDI
Kd (HLA-A*02:06; [1]): 849 nM
Kd (HLA-A*02:02; [1]): 218 nM
Kd (HLA-A*02:03; [1]): 158 nM

Sequence: DAKRNSKSLV
Kd (HLA-A*02:06; [1]): ≥ 52100 nM
Kd (HLA-A*02:02; [1]): 13300 nM
Kd (HLA-A*02:03; [1]): 2870 nM

Sequence: DINVIGLIV
Kd (HLA-A*02:06; [1]): 5530 nM
Kd (HLA-A*02:02; [1]): 9800 nM
Kd (HLA-A*02:03; [1]): 4050 nM

Kd (HLA-A*02:06; source organism: Homo sapiens): ≥ 132000 nM
Sequence: DLMSSKDDV

Sequence: DTDIVNNFIT
Kd (HLA-A*02:06; [1]): 2310 nM
Kd (HLA-A*02:02; [1]): 8590 nM
Kd (HLA-A*02:03; [1]): 5590 nM

Sequence: FLITGVFDI
Kd (HLA-A*02:06; [3]): 1.48 nM
Kd (HLA-A*02:02; [3]): 0.686 nM
Kd (HLA-A*02:03; [3]): 0.765 nM

Sequence: FLIVAALVFL
Kd (HLA-A*02:06; [3]): 3.64 nM
Kd (HLA-A*02:02; [3]): 3.02 nM
Kd (HLA-A*02:03; [3]): 162 nM

Sequence: FTSDYPFYV
Kd (HLA-A*02:06; [1]): 3.58 nM
Kd (HLA-A*02:02; [1]): 2.07 nM
Kd (HLA-A*02:03; [1]): 3.91 nM

Sequence: FTYASALWEI
Kd (HLA-A*02:06; [3]): 2.54 nM
Kd (HLA-A*02:02; [3]): 1.6 nM
Kd (HLA-A*02:03; [3]): 6.05 nM

Sequence: FVKKMLPKII
Kd (HLA-A*02:06; [1]): 6710 nM
Kd (HLA-A*02:02; [1]): 11100 nM
Kd (HLA-A*02:03; [1]): 1140 nM

Kd (HLA-A*02:06; source organism: Homo sapiens): ≥ 53800 nM
Sequence: GLSQRHEEKV

Sequence: HTKFWISDNT
Kd (HLA-A*02:06; [1]): ≥ 69800 nM
Kd (HLA-A*02:02; [1]): ≥ 21500 nM
Kd (HLA-A*02:03; [1]): ≥ 60200 nM

Sequence: ILNPYMPSVV
Kd (HLA-A*02:03; source organism: Dengue virus 1 Brazil/97-11/1997): 3.26 nM

Sequence: ILRNYLRLYI
Kd (HLA-A*02:06; [1]): 65 nM
Kd (HLA-A*02:02; [1]): 0.394 nM
Kd (HLA-A*02:03; [1]): 0.895 nM

Sequence: IQYRQQLELA
Kd (HLA-A*02:06; [1]): ≥ 69800 nM
Kd (HLA-A*02:02; [1]): 4320 nM
Kd (HLA-A*02:03; [1]): 8470 nM

Sequence: ITNILGGVL
Kd (HLA-A*02:06; [1]): ≥ 32400 nM
Kd (HLA-A*02:02; [1]): 7380 nM
Kd (HLA-A*02:03; [1]): 2440 nM

Sequence: ITPNNLNKI
Kd (HLA-A*02:06; [1]): 409 nM
Kd (HLA-A*02:02; [1]): 14600 nM
Kd (HLA-A*02:03; [1]): 876 nM

Sequence: IVAAVIIMAI
Kd (HLA-A*02:06; [1]): 4510 nM
Kd (HLA-A*02:02; [1]): 727 nM
Kd (HLA-A*02:03; [1]): 2610 nM

Sequence: IVDKFGKNHI
Kd (HLA-A*02:06; [1]): 8330 nM
Kd (HLA-A*02:02; [1]): 2930 nM
Kd (HLA-A*02:03; [1]): 5080 nM

Sequence: IVTFINDYA
Kd (HLA-A*02:06; [1]): 1150 nM
Kd (HLA-A*02:02; [1]): 140 nM
Kd (HLA-A*02:03; [1]): 2960 nM

Sequence: KIILFLTLI
Kd (HLA-A*02:06; [3]): 24.3 nM
Kd (HLA-A*02:02; [3]): 68.1 nM
Kd (HLA-A*02:03; [3]): 4.94 nM

Sequence: KIYTLIYRQL
Kd (HLA-A*02:06; [1]): 912 nM
Kd (HLA-A*02:02; [1]): 707 nM
Kd (HLA-A*02:03; [1]): 1030 nM

Sequence: KLISEKETL
Kd (HLA-A*02:06; [1]): 7650 nM
Kd (HLA-A*02:02; [1]): 841 nM
Kd (HLA-A*02:03; [1]): ≥ 24700 nM

Sequence: KLRSSPPIPM
Kd (HLA-A*02:06; [1]): 2210 nM
Kd (HLA-A*02:02; [1]): 57.6 nM
Kd (HLA-A*02:03; [1]): 134 nM

Sequence: KLTLKGMSYV
Kd (HLA-A*02:03; source organism: Dengue virus 1 Singapore/S275/1990): 53.4 nM

Sequence: KSGLFQFFV
Kd (HLA-A*02:06; [4]): 8.06 nM
Kd (HLA-A*02:02; [4]): 23.1 nM
Kd (HLA-A*02:03; [4]): 1550 nM

Sequence: KVSCTILAV
Kd (HLA-A*02:06; [5]): 18.2 nM
Kd (HLA-A*02:03; [5]): 57.7 nM

Sequence: KVYNGIFVDT
Kd (HLA-A*02:06; [1]): 16400 nM
Kd (HLA-A*02:02; [1]): 111 nM
Kd (HLA-A*02:03; [1]): 1440 nM

Sequence: LALTDVEKRI
Kd (HLA-A*02:06; [1]): 2410 nM
Kd (HLA-A*02:02; [1]): 199 nM
Kd (HLA-A*02:03; [1]): 403 nM

Sequence: LAYYNSCML
Kd (HLA-A*02:06; [1]): ≥ 21500 nM
Kd (HLA-A*02:02; [1]): 12800 nM
Kd (HLA-A*02:03; [1]): 15500 nM

Sequence: LCFWSAIFFT
Kd (HLA-A*02:06; [6]): ≥ 34500 nM
Kd (HLA-A*02:02; [6]): 2600 nM
Kd (HLA-A*02:03; [6]): ≥ 30300 nM

Sequence: LLATVTGGI
Kd (HLA-A*02:03; [2]): 3.59 nM

Sequence: LLFLVLIML
Kd (HLA-A*02:06; [3]): 573 nM
Kd (HLA-A*02:02; [3]): 154 nM
Kd (HLA-A*02:03; [3]): 1370 nM

Sequence: LMMATIGIA
Kd (HLA-A*02:03; [2]): 0.49 nM

Sequence: MLTNAISSRV
Kd (HLA-A*02:06; [1]): 224 nM
Kd (HLA-A*02:02; [1]): 53 nM
Kd (HLA-A*02:03; [1]): 0.105 nM

Sequence: MLWCKDGHV
Kd (HLA-A*02:06; [3]): 362 nM
Kd (HLA-A*02:02; [3]): 10.3 nM
Kd (HLA-A*02:03; [3]): 11 nM

Sequence: MMQNDYGGM
Kd (HLA-A*02:06; [1]): 1660 nM
Kd (HLA-A*02:02; [1]): 1080 nM
Kd (HLA-A*02:03; [1]): 2740 nM

Sequence: MSIQLINKAV
Kd (HLA-A*02:06; [7]): 619 nM
Kd (HLA-A*02:02; [7]): 11300 nM
Kd (HLA-A*02:03; [7]): 1790 nM

Sequence: NAVTTNNLL
Kd (HLA-A*02:06; [1]): 202 nM
Kd (HLA-A*02:02; [1]): 1850 nM
Kd (HLA-A*02:03; [1]): ≥ 24900 nM

Sequence: NIEIMDKEQL
Kd (HLA-A*02:06; [1]): 5650 nM
Kd (HLA-A*02:02; [1]): 3470 nM
Kd (HLA-A*02:03; [1]): 15500 nM

Sequence: NLWNTFTRL
Kd (HLA-A*02:06; [3]): 166 nM
Kd (HLA-A*02:02; [3]): 24 nM
Kd (HLA-A*02:03; [3]): 194 nM

Sequence: NLYISDYKM
Kd (HLA-A*02:06; [1]): 11000 nM
Kd (HLA-A*02:02; [1]): 2790 nM
Kd (HLA-A*02:03; [1]): ≥ 25300 nM

Sequence: NQLTYVVIAI
Kd (HLA-A*02:06; [2]): 23.6 nM

Sequence: NVLAWLYAA
Kd (HLA-A*02:06; [3]): 1.58 nM
Kd (HLA-A*02:02; [3]): 7.31 nM
Kd (HLA-A*02:03; [3]): 15.3 nM

Kd (HLA-A*02:06; source organism: Homo sapiens): ≥ 56600 nM
Sequence: PLPNFSSLNL

Kd (HLA-A*02:03; source organism: Homo sapiens): 16700 nM
Sequence: PLPVSRLVSL

Sequence: PTLFGRGVI
Kd (HLA-A*02:06; [1]): ≥ 64800 nM
Kd (HLA-A*02:02; [1]): ≥ 30300 nM
Kd (HLA-A*02:03; [1]): 6730 nM

Sequence: QVKDNIISRT
Kd (HLA-A*02:06; [1]): ≥ 34200 nM
Kd (HLA-A*02:02; [1]): 17800 nM
Kd (HLA-A*02:03; [1]): 421 nM

Sequence: RIKSVLDII
Kd (HLA-A*02:06; [1]): 2080 nM
Kd (HLA-A*02:02; [1]): 111 nM
Kd (HLA-A*02:03; [1]): 17.6 nM

Sequence: RLPSETFPNV
Kd (HLA-A*02:06; [1]): 0.584 nM
Kd (HLA-A*02:02; [1]): 173 nM
Kd (HLA-A*02:03; [1]): 14.1 nM

Sequence: SAEDNYLAKL
Kd (HLA-A*02:06; [1]): ≥ 69800 nM
Kd (HLA-A*02:02; [1]): ≥ 70000 nM
Kd (HLA-A*02:03; [1]): ≥ 70400 nM

Sequence: SARALKAYFT
Kd (HLA-A*02:06; [1]): ≥ 25700 nM
Kd (HLA-A*02:02; [1]): ≥ 21600 nM
Kd (HLA-A*02:03; [1]): 7810 nM

Sequence: SASDMQKFTI
Kd (HLA-A*02:06; [1]): 4250 nM
Kd (HLA-A*02:02; [1]): 10800 nM
Kd (HLA-A*02:03; [1]): 1220 nM
